Results from patent US20200085917A1 (UNIVERSITY OF PITTSBURGH OF THE COMMONWEALTH SYSTEM OF …, published 2020).

B1: Isca2_IPI:IPI00120671.2 (other, mouse, UniProt Q9DCB8 9-154, looked up)
chain: LTAEAVRAVIPRRSGRLLAVFPRLLTRWETTSSIPEAGEGQIRLTDSCVQRLLEITEGSEFLRLQVEGGGCSGFQYKFSLDTVINPDDRVFEQGGARVVVDSDSLAFVKGAQVDFSQELIRSSFQVLNNPQAQQGCSCGSSFSVKV
B2: Ociad2_IPI:IPI00112139.1 (other, mouse, UniProt Q9D8W7 1-154, looked up)
chain: MASVSTHGNQEKSPHLPPLSKQSLLFCPKSKLHIHRGEIAKIIRECQEESFWKRALPFSLISMLVTQGLVHQGYLAANPRFGSLPKVALAGLLGFGLGKASYIRVCQSKFHSFEDQLRGAGFGPEHNRHCLLTCEDCKTRRGLSEKAGSQPSAS
B3: Cisd1_IPI:IPI00128346.1 (other, mouse, UniProt Q91WS0 1-108, looked up)
chain: MGLSSNSAVRVEWIAAVTFAAGTAALGYLAYKKFYAKENRTKAMVNLQIQKDNPKVVHAFDMEDLGDKAVYCRCWRSKKFPFCDGAHIKHNEETGDNVGPLIIKKKET
B4: Arf2_IPI:IPI00135730.1 (other, mouse, UniProt Q8BSL7 2-181, looked up)
chain: GNVFEKLFKSLFGKKEMRILMVGLDAAGKTTILYKLKLGEIVTTIPTIGFNVETVEYKNISFTVWDVGGQDKIRPLWRHYFQNTQGLIFVVDSNDRERVNEAREELTRMLAEDELRDAVLLVFVNKQDLPNAMNAAEITDKLGLHSLRQRNWYIQATCATSGDGLYEGLDWLSNQLKNQK
B5: Fis1_IPI:IPI00132217.1 (other, mouse, UniProt Q9CQ92 1-152, looked up)
chain: MEAVLNELVSVEDLKNFERKFQSEQAAGSVSKSTQFEYAWCLVRSKYNEDIRRGIVLLEELLPKGSKEEQRDYVFYLAVGNYRLKEYEKALKYVRGLLQTEPQNNQAKELERLIDKAMKKDGLVGMAIVGGMALGVAGLAGLIGLAVSKSKS
B6: Prdx3_IPI:IPI00116192.1 (other, mouse, UniProt P20108 63-257, looked up)
chain: TPAVTQHAPYFKGTAVVNGEFKELSLDDFKGKYLVLFFYPLDFTFVCPTEIVAFSDKANEFHDVNCEVVAVSVDSHFSHLAWINTPRKNGGLGHMNITLLSDITKQISRDYGVLLESAGIALRGLFIIDPNGVVKHLSVNDLPVGRSVEETLRLVKAFQFVETHGEVCPANWTPESPTIKPSPTASKEYFEKVHQ
B7: Mrpl14_IPI:IPI00133778.1 (other, mouse, UniProt Q9D1I6 31-145, looked up)
chain: AVQKMTRVRVVDNSALGSTPYHRPPRCIHVYNKSGVGKVGDQILLAIRGQKKKALIVGHRMPGSRMTPKFDSNNVVLIEDNGNPVGTRIKIPIPTSLRRREGEYSKVLAIAQNFV

target: T1, GST alone (UniProt P08515 1-218 = GST); assay: GST pull-down, LC-MS/MS
T1 construct: Negative control of the pull-downs; also called control GST
T1 sequence (P08515 whole entry): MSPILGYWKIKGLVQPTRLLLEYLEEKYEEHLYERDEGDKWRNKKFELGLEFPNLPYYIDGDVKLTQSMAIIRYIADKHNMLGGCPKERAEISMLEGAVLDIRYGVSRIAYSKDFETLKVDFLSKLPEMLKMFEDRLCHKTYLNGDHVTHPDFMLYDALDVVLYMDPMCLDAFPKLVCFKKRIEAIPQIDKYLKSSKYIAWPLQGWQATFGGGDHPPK
Experimental: Extracts were spun at 14,000 r.p.m. at 4° C., and clarified supernatants were incubated with glutathione 4B Sepharose beads (GE Healthcare) at 4° C. overnight. The glutathione beads were then washed extensively with ice-cold TNE buffer, and bound proteins were subjected to SDS-PAGE followed by immunoblotting analysis. For the samples subjected to mass spectrometry, glutathione bead-bound proteins from equal amounts (600 μg) of mitochondria were further washed with high stringency RIPA buffer following TNE buffer wash to decrease nonspecific interaction. Proteins were then eluted from the glutathione beads in SDS sample buffer, separated by SDS-PAGE and stained with Coomassie. Proteins in the gel were digested with trypsin and analyzed by mass spectrometry (LC-MS/MS) at the Taplin Biological Mass Spectrometry Facility (Harvard Medical School, Boston, Mass.).

Binding result, no binding:
B1, B2, B3, B4, B5, B6, B7
